Publication PMC12096946, “Structural analysis of genetic variants of the human tumor suppressor PALB2 coiled-coil domain” (Bioscience Reports, 2025)

Molecular target: the molecule itself
Experiment: SEC; analytical size exclusion chromatography, Superdex75 column; 50 mM Na2HPO4, 150 mM NaCl, 5 mM DTT, pH 6.5; mass from molecular weight standards

Protein	stoichiometry N	binding result
GKPLSCEEKEKLKEKLAFLKREYSKTLARLQRAQRAE (domain or fragment, UniProt Q86YC2 6-42, looked up, PALB2 (partner and localizer of BRCA2), human, N-terminal coiled-coil domain, residues 6-42 of the 1186-amino-acid protein; A methionine was introduced before the domain for CNBr cleavage of the His-GB1 tag; The NMR sample was uniformly 13C,15N labelled; The methods of the CD experiments say that PALB2cc peptides were synthesized; also called wt-PALB2cc; source: E. coli BL21-DE3, purified …) [human PALB2 coiled-coil domain (PALB2cc, residues 6-42)]	2	–
GKPLECEEKEKLKEKLAFLKREYEKTLARLQRAQRAE (peptide, UniProt Q86YC2 6-42, looked up, also called S10E, S29E phosphomimetic PALB2 coiled-coil domain; source: synthetic peptide (Lifetein technologies)) [S10E, S29E-PALB2cc]	–	binds
